Assay [1] concerns the target T1, human CD38 on cells (CHO-CD38 cells, Daudi-luc cells, fresh multiple myeloma tumor cells) (human, UniProt P28907 1-300).
T1 construct: also called CD38-CHO; CD38-transfected CHO cells
Nature of the assay: flow cytometry on Daudi-luc cells, anti-human IgG-FITC detection. A general note: Flow cytometry measures light scatter and fluorescence of single cells or particles in a stream.

In assay [2] the target is T1, human CD38 on cells (CHO-CD38 cells, …). Put plainly: cell-based or functional assay.
Assay [3] shares this target. Put plainly: cell-based or functional assay. The source holds these as a separate data set.
For assay [4] the target is unchanged. Nature of the assay: flow cytometry on fresh MM tumor cells, FITC-labelled antibody.
Assay [5] has as its target His-CD38 (His-tagged extracellular domain of human CD38) (human, UniProt P28907 43-300). Nature of the assay: cell-based or functional assay.
For assay [6], the target named is T1, human CD38 on cells (CHO-CD38 cells, …). Put plainly: flow cytometry on CHO-CD38 cells, detection with rabbit anti-human IgG-FITC (Example 4).
Assay [7] shares this target. Put plainly: flow cytometry on CHO-CD38 cells, anti-human IgG-FITC detection.
In assay [8] the target is T2, cynomolgus monkey CD38 (on lymphoid tissue, lymphocytes and monocytes) (cynomolgus monkey, UniProt Q5VAN0 1-301).
T2 construct: whole, on cells; also called cynomolgus CD38
Put plainly: immunohistochemistry on frozen cynomolgus tissue sections.

The target in assay [9] is T2, cynomolgus monkey CD38 (on lymphoid …). Put plainly: flow cytometry on cynomolgus lymphocytes, detection with FITC-labeled rabbit anti-human IgG (Example 11).
Assay [10] concerns the target T3, HA-CD38 (HA-tagged extracellular domain of human CD38, wild type) (human, UniProt P28907 43-300).
T3 construct: also called HA-tagged CD38; wt human CD38; not shown: HA-tag introduced by the forward PCR primer, after signal peptide SPHMM
Nature of the assay: SPR (Biacore 3000), antibody immobilized on CM-5 chip, HA-CD38 flowed over, 25° C., mean of 3 ± SD.

The target in assay [11] is T1, human CD38 on cells (CHO-CD38 cells, …). Put plainly: cell-based or functional assay. This is another data set of the same source.
Assay [12] shares this target. Put plainly: cell-based or functional assay. The source holds these as a separate data set.

B1: -024 (antibody, human IgG1, V domains shown)
VH: EVQLVQSGAEVKKPGESLKISCKGSGYSFSNYWIGWVRQMPGKGLEWMGIIYPHDSDARYSPSFQGQVTFSADKSISTAYLQWSSLKASDTAMYYCARHVGWGSRYWYFDLWGRGTLVTVSS
VL: EIVLTQSPATLSLSPGERATLSCRASQSVSSYLAWYQQKPGQAPGLLIYDASNRASGIPARFSGSGSGTDFTLTISSLEPEDFAVYYCQQRSNWPLTFGGGTKVEIK
notes: Human monoclonal IgG1 antibody; The recombinant form was cloned into pConG1f0.4 (human IgG1 constant region) and pConKappa0.4 (kappa constant region); also called antibody -024
The EC50 is the midpoint of the concentration-response curve. By EC50 (read off the curve) is commonly meant the concentration at which the effect is half-maximal. Regarding B1, in [1], the EC50 worked out at 0.05 µg/mL. Besides, in assay [2], the “EC50, ADCC of Daudi-luc cells (51Cr release)” value came to 0.0097 µg/mL and the “EC50, ADCC of fresh MM tumor cells (51Cr release)” value turned out to be 0.056 µg/mL. Moreover, in assay [3], the “EC50, CDC of CD38-CHO cells (PI-positive cells)” value is 0.24 µg/mL and the “EC50, CDC of Daudi-luc cells (PI-positive cells)” value is over 90 µg/mL. This molecule gave an EC50 in [4] of 0.02 µg/mL. Further, in assay [5], the “cGDPribose production (% of NGD control), 0.03 µg/ml antibody” value is 105 % of NGD control; the “cGDPribose production (% of NGD control), 0.3 µg/ml antibody” value was 104 % of NGD control; the “cGDPribose production (% of NGD control), 3 µg/ml antibody” value was 100 % of NGD control; the “cGDPribose production (% of NGD control), 30 µg/ml antibody” value is 99 % of NGD control. The “EC50 (read off the curve)” value in assay [6] is about 0.2 µg/mL. The molecule further yielded an EC50 in assay [7] of 0.08 µg/mL. For the same molecule, the binding result in assay [8] is “binds”.

B2: -005 (antibody, human IgG1, V domains shown)
VH: EVQLLESGGGLVQPGGSLRLSCAVSGFTFNSFAMSWVRQAPGKGLEWVSAISGSGGGTYYADSVKGRFTISRDNSKNTLYLQMNSLRAEDTAVYFCAKDKILWFGEPVFDYWGQGTLVTVSS
VL: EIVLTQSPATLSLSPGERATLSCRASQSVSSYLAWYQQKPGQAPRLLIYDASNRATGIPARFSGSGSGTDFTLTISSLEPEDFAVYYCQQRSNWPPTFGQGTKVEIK
For the molecule B2, in [5], the “cGDPribose production (% of NGD control), 0.03 µg/ml antibody” value is 102 % of NGD control; the “cGDPribose production (% of NGD control), 0.3 µg/ml antibody” value is 98 % of NGD control; the “cGDPribose production (% of NGD control), 3 µg/ml antibody” value was 66 % of NGD control; the “cGDPribose production (% of NGD control), 30 µg/ml antibody” value is 68 % of NGD control.

B3: -003 (antibody, human IgG1, V domains shown)
VH: not shown
VL: DIQMTQSPSSLSASVGDRVTITCRASQGISSWLAWYQQKPEKAPKSLIYAASSLQSGVPSRFSGSGSGTDFTLTISSLQPEDFATYYCQQYNSYPRTFGQGTKVEIK
notes: Human monoclonal IgG1 antibody; The recombinant form was cloned into pConG1f0.4 (human IgG1 constant region) and pConKappa0.4 (kappa constant region); FITC-labelled in some assays; also called antibody -003; HuMab -003
The Kd is the constant that tells how readily two partners part at equilibrium. In the case of B3, the binding result in [9] was “binds”. Besides, the EC50 in assay [1] is 0.26 µg/mL. In addition, in assay [10], the Ka stood at 1.14e+09 M⁻¹ and the dissociation constant (Kd) amounted to 0.885 nM. In addition, in assay [2], the “EC50, ADCC of Daudi-luc cells (51Cr release)” value worked out at 0.009 µg/mL and the “EC50, ADCC of fresh MM tumor cells (51Cr release)” value came out at 0.027 µg/mL. Besides, in assay [3], the “EC50, CDC of CD38-CHO cells (PI-positive cells)” value is 3.14 µg/mL and the “EC50, CDC of Daudi-luc cells (PI-positive cells)” value was over 90 µg/mL. The “EC50 of lysis of CHO-CD38 cells (table captioned ADCC; the text ties these values to CDC)” value in [11] was determined as 4.5 µg/mL. Besides, in assay [4], a half-maximal response (EC50) required 0.56 µg/mL. Also, in assay [5], the “cGDPribose production (% of NGD control), 0.03 µg/ml antibody” value was 107 % of NGD control; the “cGDPribose production (% of NGD control), 0.3 µg/ml antibody” value was 107 % of NGD control; the “cGDPribose production (% of NGD control), 3 µg/ml antibody” value is 100 % of NGD control; the “cGDPribose production (% of NGD control), 30 µg/ml antibody” value was 99 % of NGD control. The same molecule had an EC50 in assay [7] of 0.54 µg/mL. Also, the “Log EC50 of lysis (table captioned CDC; the text ties log EC50 values to ADCC of Daudi cells)” value in [12] came to 1.17.

The values above are taken from patent US20160130362A1 (Genmab, published 2016).
